Source: the NTF2 design screens of Basanta et al. (2020)

Assay: protease stability score; higher = more stable; yeast display proteolysis, trypsin and chymotrypsin;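 also: relative to predicted unfolded state with 0 unfolded-like and 1 meaning tenfold more protease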

Sequence	protease stability score
TEHDHDTERAFKEWFDVVRTGDFHRLERMLDPNVLSRIDGKLIHGRERLLKFWQEYLEHLGANHHEIHHVDIQGDKINIDIRVEYGDKRFTVHVHASKINGQWRVHENEKQ	1.02
TEHDQVLLQLSQELFHSVLTGDFDLWTKLMDPNVRVHIISEDEELHRVGWETMIRWLRRFLEELRIHSMRIRRVHHVDGVAHEDGELDGIVDGQRVITRVTLHVITINGRWHSVHLERL	0.801
TEHEEISHRLMELLKEALQTGDEEHIRDLADPHVRVIVNGKNIHGREEVHMWLLILNTKFKGLTLRVHHVDIQGEKIILDTRIHVNGRSTTSHVELYVVDGVLKRAHLHIE	1.45
TEHEEMIREALEFLIRLLETGDFERLHHLADPNVRLEQGDKEFIGREEWLRLFTEEIRQYKGITIHIHEVEVVDGRVYINGTVHQGDKIRRVIWVIIKIDGKWRIHSVHIR	2.19
TEHEHEAEDALEKSIRHFHTGDEDTLKHLMDPNVRNDIDGKHIHGREDVLDIMIRIPNVRSEIDDVRVRHVNGRIEVIVDGILYFNGRTVEVRVILIMQKINGKWYITSLEIRRR	0.628
TEHEKFKEEWVRMFLRDWLTGNENTLRHLADPDTLLEINGRIFHGMHTISRWTEEHLRRIDHLRLEMHTVDVIGDFAHVHGTLKLHVGDKEHHVTFHINLFTINGRIKSIIVKEE	1.43
TEHHERHIKLMRKIIEALLTGDEEILRKLMDPDVRWEQGDKTVIGMEAVIKFLKDVSRHIRIKDIKIERQTDINGRMFTEGHLHIQYGDKEDTQEVHIELDVINGRIKSFHVEYR	1.65
TEHRHLIEQHLRDLQHDMRTGDEDNLHKLADPHVRVDIDGRQLHGREAWSKTMFELRTDIRVDRFDVQGNKIHIEGHLIEHFDGRTINMRVHIIWFKVDGRWLIHEVRIE	1.22
TEIEEHIREVSEILTDWIITGNEEMIEKLLDPHARVVIGDKEHHGREVVIRFLRHWRLHRFDHRSFILQGEKAILIGDMDGDINGQRINLHVEEIHIIVDGRLKILEVKYK	2.7
TEIEKLLDEIVKHFLWAFLTGDWDKVAKLADPNTKSVWNGVDLVGMHLNEHVLEMLIRRYDVIHSIHLRSYRTQGDKLHVDSELNMIQGDKEETVRVRITLHVVNGRLKSIEVRIE	-0.002
TEIKHHVKEMADLFLENLLTGNEDILKKLMDPNALLVVGNKHIHGWEEMIKQWKDVRRHMRIEHVETEDIELQGDKAHIHVNIFGQINGKRKESHVRIHFEVFDGVLRRVEIDER	1.18
TEKEEIVEETMKQLLHAEETGDWRTIEHLLDPNTRIIVEFNGVEIVLHGREEAVKFMFDFARHWRIKDFKVESIDIQGNKVHMRIRVDMEFNGKHIRTETNIHTVVVDGRIKSHERRVE	1.63
TEKEELYRKIYELLENLLFTGDEHAWRNNMDPHVKILLNIDGKIHDLHGWHAWHLVLRLLGIDHMEFKDFHVQGDKFHLELTVDFDGREHIMRVDIIVVNGKITSVRVSIE	1.37
TELDELALKLLEQLIELEATGDWKTLLKLFDPNTRVDIEVGDKKIRLHGREDVIEWVKTVYEHLRFEIRIHSSDAIDGRVHVSTKLIIRIDGRTIEVETHLRVIMIDGKIHEVNTHVH	1.43
TELDEQVTEVFKINERLKQTGDWKKIIDYVDPHARVEIGEFRDHGRDAAEFTMKYLGIDHFELKRVHLQGNKLHIHGELTVDGRLIHLIIISEKVDGRWITKSMTVD	0.01
TELDKHLEDFAREFLHAFLTGDEDELRRLLDPNVKFEHDFDGVRFENHGMSALKEFWERVDVIDRFEIHEVRTQGDFIELVFHIDGWVNGRHKRTDSRILLVVINGKIKTIHVKIK	2.15
TELDKHVEDLLHRFIEALHTGNWEQLEHLVDPDARFDVDGRIHHGREWLLTHMTRIKNARIEFHHIEIYGDYISMRVIIHVNGQTRDFHLELITFNGRIKEVRIWHI	2.34
TELEDELRKMFESWRHNSRTGNEHAEDNNMDPNVKLLIDGRTVVGMEFYRKWVHEARIEDSHVDHHTVIDGRAHVHMTLNSNYNGVHRRLEIELVSEKIDGKWRLKSIIIR	1.51

Sequence	protease stability score
TELEDLVKRLWHIWLHAVLTGDEDLLTKLIDPHARLEIHIGDKEFIHIGREEFVRFMREYHRHLRVERVDERSMEVIGNKSHSDVRTVIHIDGRTIDTRMHIDLIVVNGRVKSLEIHVH	2.26
TELEEDIVRAWERFVRSLETGNERSIRELMDPNPRIVIGDYEFHGREAIEELLRRIDVIKSVELRHFRLQGEKARLDTTETGHIDGRDVTYETRIISLKVNGVWVLKRIEVR	1.53
TELEEEAKKYQDFFVTIVVTGDEDSFINLFDPNVRSVVNGRKLHGMHKWKRYIEELLRKIKNLRFELTIHEVNVIDGKVESHMELILRINGVEQRHDLNVHAEKFDGRWLYREIEIR	1.46
TELEEEVERLMEIFHKAFETGDEHELKRLADPHVRLDFNGRDIHGMDFIIREWLKIKNMRFRIHLDHVELQGEKVHIDGKVEEDFDGVHRHHRVILIWEKYDGRWHHKRMHVK	1.43
TELEEIFRLALEYLDKIWKTGDEHTLKRMFDPTTLLVVDGKRQHGMEFWREFLERYDHFHHLEVDDYHDVNGVLRLHGVIDGTVNGRRHEIHVHIVASKVNGKWRLKSVIFH	1.5
TELEELMIKIIRLILRSHNTGDEDEQRKLLDPHVRWHIGDKEIHGRDLIIEHLKEVYERIDHIEFRENHVDIQGEKLHLDGRLIFIQGDKNIEFRVHYHFLIIDGVVDLIEVQIR	1.5
TELEESAKRAVKHVVDLILTGDWELFEEMFDPHTRILVGDKHMHGREMASEHLRFWYEHLGVKHIEIRRIDVQGDKVVSDVETDIDGRHIRVNLVIHKVDGKWIIHSIHLD	1.59
TELEHDVIHAFNLIVWAIRTGDEKTYHRLVDPRVQIDIGDKHLHGREDFTRLLREIRVTVRDWDFEHVRFQGDYAILHSRLDIEINIDGRIERIDVHQILFVEKINGRWRHTRESRH	0.366
TELEHKAIEVVEAVFRNLHTGDESLLQELFDPNTKSLIDGVSVVGMHEIYKTIKHLRIEFESIEVHHITNVNGVLLLDVTLRERYRINGVEDEKQTRVHIIVRKIDGRWHLEHVRFH	1.48
TELEKDAKEFFRIVIEAWLTGDEQKIEHLADPHVRLDINGVELHGWEELIRRLHDELHRYDYMQINVRRVEIQGEKIHVDGELELRFDGKIYRHEVEINILVVNGKNKEQKFVKK	0.243
TELEKDVVEVLHFLTHAHKTGDEDAINRLLDPHTRIDIDGQEFIGREDALRLWHELRTTHMRIDDRRIQGDKIQVDGQVNYLVNGREEERDVTIHMVKFDGVWVLREIKID	2.07
TELEKLLKEMSDIIHHAWRTGDEHLVRNLADPNVRFHTQIDGRNDERWGREEMEKALHDWLRHFGVKHIIDKSIELQGDKITIKGHVDVDGVKIDVRIFLIVVNGKLKTMKIEHD	1.19
TELEREVETFLEMWITAIHTGDWTTLIELIDPHARLDYDGREIHGMEYYVEEFIKRLQEHGARVDIKIDRIDFQGDKVRVIGQLEVIIGEKREVKDVIIYIEKVDGKWRLHHEEIV	1.37
TELETELEHMVKIVIDSLLTGDEKKLHKQADPHVRHSQGEFEWHTREAMIRFFFELGIDHMTLTEIHLQGDFVEMHIENNINGRRVELRIHWHKFNGKWINRRTHVRHI	0.698
TELREIFIHFAEMILENIQTGDEDTLDELADPNTRIDINGVTMHGREKISRHWKEHLDRYDHFRIEIKRIRSQGDFAENDVTLVIIYNGQRIRIRMEVEIIFVDGRIHSINERRE	0.225
TEMEEEIRDSIELLDRAINTGDEEKLRRLFDPNTRREVGDKQHHGRELLIRQIVELGAEHHIHVDHWRLQGDKAVIDGTLNYEFNGREYRTRTTLHLVKINGRWLMHSIHLH	1.08
TEMEEWSRLAIEIWEEVVRTGNEHDMARLLDPNTRLIVGEKEYHGMETVMHLLERIKNLVLRRFHIEHVRLQGDKVEIDARSVHHVNGRDIETTLKIISFKFNGRWTIRQESII	0.614
TEMEKRAEHWARLMVDRLKTGDEEVLRKMMDPNTRLEIDGREFIGREEILKSWEELGIKHIIFRHIDIEIVDGVVHVHLDLHVRIGEKDTKIELRVTNEKINGRWVIRSIHIHDI	1.69
